Test: label from the status in PepcDB records
In the case of “MTQPVPVHYTLRPVSPEAHLFEATVTISHPAKDGQVFFLPAWIPGSYMIREFSKHIVGMAASAGGKPVALRQLEKNRWQAAPAKGALTLRYQVYAFDLSVRGAYLDGERGFFNGTSVFLAAEGYEGEACTVDIHAPEGKAYAEWKVATSLPAEDVKKKTGFGRYRAADYDELIDHPVEMGDFKKVSFKACGVPHEFVVSGRFQGELKRLAEDTRKICECQIKLFGEPAPFDRYVFMLFVGKDIYGGLEHRASTALVANRDDLPAPGAAEIGDGYLKLLGLISHEYFHSWNVKRMKPAAFTPYDLNREGMTRLLWAFEGITSYYDDLTLVRCGLIDEKRYLGLLAETITGVQRGAGRLKQTLEQSSFEAWTKYYRQDENSPNSIVSYYTKGSLAALALDLLIRRDSKGKQSLDDVMRALWAKWLADGKGLEEGEWEKIAIETTGLKLKPFFDLALRSTGELPLAELLKSQGVELKFEAAQGASDRGGVVDAFAGKPAPLTLGVKTAADAAGVKLLQVLDGGAAQAAGLSGGDVVVAVDKLRAYDLDKQIARFAAGDKIKLHAFRRDELMTFEVAPQAAPEDTCRLKLDAGGGKWIAGRLEHHHHHH”, the protein production was “failed”. With “MTQQHLFPSTKAKSYKLFCFYLLILTSLLHPATAGAADITQQLHRPVNSSMGRQSRDEADSLLRVAEQQYAAGCADKAIDSGLQALDIYHLIGDLRAKGLTYNLLAKAYIELGRFKEGEDALRRRLAIARDTKDFQSQIFALNNLGTLLLQAGEPKAAGETIQEAYTIADNVKNIDGEGLSLSNLGLVSSRLGDYNKAIKLYETALIFRRRTGDAPGEMNTLNNLGDAYLAAGNYPDTIGTYGAAMRIAKTLGDRSNQLRAIDGLVTAHSAVGRYERAFDLLQQRLTIAQELQNLREELKSFESYAKLYEQLGNYPTARNFYERAIIISQTLEDNKQEVFLRDRLTQMLRSQKSILK” the protein production was “failed”. With “MTQTTVPVIFDLDGTLVDPAGGITGGISAALREMDLPVPEQAVLNSMVGPKLSDSLLHLADVPGELVDETIERYRRHYKETGIGQSKLYPGVFDLLEYFAETGRPVAVATQKPQSIARLVLEHHKIADFFVSIRGAADDESLKANTASGKVEIVGAALKDLHSQPAVMVGDRHQDVAGALANGLDCIGVSWGFAPDGELEEAGAVAVVSTALELRSKIEELDAVRAAALSEVQNDGSL” the protein production was “failed”. For “MTRACNLYVFKNKYVSFNLLDSPNSNPKLLKISLPFNFMDEFEGLLKAVGSAPWYKLIGMVPKLQGDRVVVEMEIDRSKHLQALGTTHGGAIASVLDSAIGLNVNREVVKMGKTAVTAQLNIHYIRPVTEGKIVGVGMPMHIGSKVTVGYGEVRNEEGELVAAGTATFYIIDRRFRDLEHHHHHH”, the protein production was “failed”. In the case of “MTRAQPEPVQVVKQRRDAALRALVSGVPYITYLGIQFDRRGDELTAVLPFDEKLIGNPMLPAIHGGVTAAFLEVASIIELSWSVLWHEMEQGRLDPDQIEARLPRLPKTIDFTVDYLRSGLPRDAYARARVNRSGRRYASVHVEAWQDNRLRPFAQATGHFLMPARNDLEHHHHHH”, the protein production was “not failed”. In the case of “MTRHNEIIKCAEKYQLHIQPQTISLNESGLDFQVAFGKDKHGVEWVLRLPRRPDVYKRTKPEKQTVDFLQKNVSFEIPKWKVHAKDLIAYPKLTGKPAATIDPEIQNYVWEIEHKPLPENFINTLAETLVDLHNIPEENINVQHINIKTIQEIKNDFQRRMNKVKETYGVSDELWNRWKQWLENDELWPRHATMIHGDLHPGHIMVDNQANVTGLIDWTEATHSDPSMDFIGHHRVFDDEGLEQLITAYGKAGGEIWPRMKEHIIELNAVFPMFIAEFAMESGESAYETMALKELGMKE”, the protein production was “failed”. In the case of “MTRLTRFAVAPLHSMTRRLADVASARVAPDLVVTGARVLSTYSERIHANREVWITGGRVAAVKPAGTARKAWSGVALYDAAGAIIAPGLVDPHIHIESSMVTACAYAEAALLNGTTTIFCDSHEIGNVMDVAGVEAMLEDARQAPLSIFLTVPSTVPATSAELETAGGDLTPDKIAGLFDRWPEAVALGEKMDFVPVTMGDERSHAILAAALKRGRPVSGHVYGREFVAAYAASGVTDTHEAIDRDIADDLLDAGVWVFLRGGPPTTPWHSLPQAIRTITELGASHKRTAVCTDDRDADDLLLFGLDWVVREAVKAGMSPEQAWSMGSLHGATRFGMEGDIGGLGGGRRADLVLMDDQLKPQCTWYGGELVVEHGKITPRLDQALSQRYQYPKAAYATVKLPEKVKLTPELPAKACTVNAIKTALPGITLIHEKVAIEPAKDWPTLFARYGLCFVTVVERHGKSAGNVAYGLLKDFGLKRGAVASSVGHDSHNIIVAGTNEPDMQVAIAAIKEHQGAVCVVADGKVRALVPLPIAGLLSDKRVTEVAEEVKVLKKEWAEAGCTIPYMGFNLIPLSVIPEIRITDKGLVLVPQMELAPLFE”, the protein production was “failed”. In the case of “MTRPIFYDPTGRRSLLAKRSLAVVFLAVILAALAFATTLVAVPRQRALSLPQPHFEAASLHRGHGLSRLRSWLPRLHLQRSQEALAIGFYQPRSDASFQSLSRHGNQLDWVVPALLNVAGPEHRLAVSNDPRFDSFVAAGHHHYKVLPMVQNVGGDGWDGANVARILENATERHALERQLADYVARRGDAGLVLDFEDLPATAMRPYVAFLRETNALLPAGAQLAVTAPAGEDDWPIAALGRAADKVILMAYDEHWQNGAAGPIASQTWFTNEVEKSARALPADRLVIALGSYGYDWHQGGTDALSLSDAWLAAHDSHAPIIFDKASGNAGFAYEQDGVSHTVWMLDAATDWNEMLAVQRLGIGNLALWRLGTEDPGFWNDLAALRSGKAPDLSRLVSEGGNDVEGTGEILRITATPVAGSRTVAFGDQHLIRDERYGDLPTPFVVRRTGAANPKLLALTFDDGPDPKWTPKVLSTLEAAHVPATFFVIGENALVRPDLLRRMVADGDEIGNHTYTHPNLAGSSEAETRLEINATQRLVQAYTGRSMTLFRAPYFGDAEPTTADELQPALRAQQAGYTIVGLHVDPNDWQNPGTDEIVRQVVNQIHNATEQSSSNVILLHDGGGDRSQTVAALPRIVAVLRAEGYSFVTASQLVGIPPQAAMPRLSSSDLAAVRVDVAAFLALDGLVTLFSWLFFVAIALGIARAVIMAGLAWWQSRSPRAEPPAFEPTVSVIIPAWNEERVIAASVERVLASDYPALQVIVADDGSKDATSAVVARHFGHDPRVTLLTLANGGKAAALNRALRHATGEVVIALDADTQFEPLTIRRLARWFADPRIGAVAGDARVGNRVNLVTRWQAVEYITAQNLERRALAGFDAMTVVPGAVGAWRRAALDSVGGYPENTLAEDQDLTIAIQRKGWRVTYDPRAVAWTEAPQTFRALARQRYRWAFGTLQCLWKHRKVITSRKPAGLGLVGLPQAWLFQIAFAAISPLIDGALIASIISTVVRVVQHGWAQTQGDLGRMAIYWSLFTAIDVICGWIAYRLDDKRPPYPAHLLVAQRIVYRQIMYWVVLRALASAIGGWIVGWGKLERTGTVSPAPERA”, the protein production was “failed”. With “MTRPMRLAAVAAACLTMALAGCQTNGAGSTDGVVRTNEPSKGDVTSFGDAFDGLKTVSDVEYYASDQAVAEATNQFRAENYGNAGALFFKATQLAPNDGGAWMGLAASCDRIRRFDLADRAYGKAFKLVGASAEYYNNVGYSYLLRGKLQDARTSFLKAYELAPNDPTVANNLKLLSSSVQNIER” the protein production was “failed”. For “MTRRGWILFVALCVLWGIPYLLIKVAVRDLTPASLVFLRTATGAVLLLPFVLVRGNLRPVLARWRPIALFTFGEMAVPWLLLADAERHVTSSLAGLVIAATPLVGALASRLSAGHEPLGARRMSGLAVGLAGVVALLGLDLGRGDARAVAELAVVVIGYALAPRIVARRLSDLPALDVVAVSLAMCALAYAPFGIAQLPAALPPAEALGAVAGLGVLCTALAFTLFFQLIAEVGPVRATVVAYVNPAVAVAAGVTLLGEPFTVGTAVGFALILGGSWLATSGAAGRARTPAPASAPAAPGAVAPAAAERAG”, the protein production was “failed”. For “MTRRVKTGIPGVDEILHGGIPERNVVLLSGGPGTGKTIFSQQFLWNGLKMGEPGIYVALEEHPVQVRQNMAQFGWDVKPYEEKGMFAMVDAFTAGIGKSKEYEKYIVHDLTDIREFIEVLRQAIRDINAKRVVVDSVTTLYINKPAMARSIILQLKRVLAGTGCTSIFVSQVSVGERGFGGPGVEHGVDGIIRLDLDEIDGELKRSLIVWKMRGTSHSMRRHPFDITDKGIIVYPDKVLKRGKVLEL”, the protein production was “not failed”. In the case of “MTRSQNVLAGLLLAGLLAPHAVSAEGYQTPPPELAALVDAPRTPLQSLNPQGDAVLQTHRPGLPAIADVAQPELKLAGLRLNPRMRAASRFDFGSALTLLDVKSGKSRPVTGLPARPRIADNAWSPDGKQVALSLWGDRGVELWLLDAASARVRRLGDFHLNASSGRGFAWMGAQLLVKLLPAGQGPAPEKPSTPTGPNIQQSAGGALSQTRTYPDLLKTPYDADLLDYELNSQLALVDLSGRTKLIGKPDRYLSVQASPDRRYLLATKLQRPYSTLVPLNRFPRRIEVLNLQGDSVHLVAQRPLLERMPSGNDAVETGPREVQWRTDAPATLFWAEAQDGGDPSTPAKARDALYLLPAPFQQPPLKLQELASRFAGIQWGRGDLALVSEYWWKTRDLKVWRVRPAEPDHAPTLLNRRSSEDRYADPGSPAMVSNADGLPVLQTSPDGGSLYLLGEGASPEGDRPFIDQLNLADNKATRLWRSQAPWYEAPMAVLDGGKTALLSREQADAPPNLYLKTLGQGGGLKQLTFFPHPTPQLKNVQKRQLRYKRADGIDLTATLYLPPGYDAKRDGPLPMLMWAYPAEFKSADAASQVTDSPYRFNRVGYWGPEALLARGYVVLDDPSMPIVGAGKQEPNDTYLPQLKMDAQAAVDEVVRLGVADRDRIAIGGHSYGAFMTANLLAHTRLFRAGIARSGAYNRTLTPFGFQSEERDFWQAKDVYQAMSPFNYAEQIKDALLLIHGEADNNPGTFPIQSERMYQALQGLGGTVRLAMLPAESHGYRARESILHMLWEEDRWLDQFVKRAKPRAQGTAAR”, the protein production was “failed”. For “MTRTFDTPLPIDDALDELTAALEASNTAVLVAPPGAGKTTRVPLALLDAPWLRNQKIIVLEPRRIAARASAERMAKTLSEKAGERIGYRVRFGSKVSRATRIEVVTEGIFTRQILDDPELNGVAAVLFDEFHERSLDADLGLALARDAQQGLREDLRILVMSATIDGARVARLLGDAPVVESLGRAFPVETRYLGRRSDAPLERQMAEAIAQALRAETGSVLAFLPGAAEIRRTETMLRERVQDPAVEIVPLFGALDAAVQDRAIQPAPKGQRKVVLATSIAETSLTIEGVRIVVDCGLSRVPRYEPDLGLTRLETVRASRAAVDQRRGRAGRIEPGVCYRLWDEPQTASLPAYTQPEILSADLSSLLLDLAQWGVADPSSLAFLDPPPQPALKEARELLGELGALDPDGRITDEGRSLRAMALPPRLARMIVDAARHDCAKDAAEVAAILTERGLGGDSADLDNRRDQFRRDRSQRASSARQMAQRWATQAASSSPSPQDAGELSSGVLLAFAFPDRVAKNRGNGSFTLANGRGAAVEQTSALARAPYLAVGELTGSAAQGRILLAAPIALSEIELHFGDQITDADEVSFDRSAMALRARRRRALHAITLSEAPLALTPSEQTARVLAEGLVVAGLDRLPWSKQLQQWRGRVMFLRKAEGDPWPDLSDAALAETRENWLVPALFDKTGLKDFSASDLSDALMNLLPWELRARLDREAPTHFEAPTGSKLPIDYEAEQGPTIAVRLQELFGLTTHPSVAGGAVPLVLELLSPAHRPVQVTRDLPGFWRGSYAGVRADLRGRYPRHPWPEDPASAPPTRRAKPKGT”, the protein production was “failed”. With “MTRYALLVRGINVGGKNKVVMAELRQELTNLGLEKVESYINSGNIFFTSIDSKAQLVEKLETFFAVHYPFIQSFSLLSLEDFEAELENLPAWWSRDLARKDFLFYTEGLDVDQVIATVESLELKDEVLYFGKLGIFWGKFSEESYSKTAYHKYLLKVPFYRHITIRNAKTFDKIGQMLKK” the protein production was “not failed”.

Reference: a protein production outcome set (Wang et al. 2014)
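Further: failed if final PepcDB status was selected cloned or expressed and not failed if soluble or beyond.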
